A short description of data set [1]: Enzyme acid resistance: residual activity on ATP after incubation at pH 2. It is filed as physicochemical. The settings on record: FIG. 4; for stability in acid resistance assay: pH 2 for 15 or 60 min. The procedure:
Enzyme acid resistance: Candidate enzymes were tested for their ability to resist inactivation at low pH by incubating the enzymes in an “acid buffer” of 50 mM glycine and 5 mM CaCl2 at pH 2 for 15 or 60 minutes and comparing their activity to enzymes in a “control buffer” at their optimum pH. The optimum buffer for CRC21323 and CRC21322 was 50 mM acetate pH 4.5 with 5 mM CaCl2. The optimum buffer for all other enzymes was 50 mM bis-Tris pH 6.5 with 5 mM CaCl2. After incubating in the acidic glycine buffer, the enzyme mixtures were neutralized by mixing with an equal volume of neutralization buffer. The neutralization buffer for CRC21323 and CRC21322 was 100 mM acetate and 10 mM CaCl2 at pH 4.5. The neutralization buffer for the other enzymes was 100 mM bis-Tris and 10 mM CaCl2 at pH 6.5. Next, the acid-stressed and control enzyme were tested for their ability to release phosphate from ATP using the reaction conditions and malachite green assay as described in with the following changes. The only substrate tested was ATP. CRC21323 and CRC21322 were tested with a buffer of acetate pH 4.5, but all other enzymes were tested in a buffer of bis-Tris pH 6.5. After determining the concentration of phosphate in each reaction, the residual activity of each enzyme after 15 or 60 min incubation in the “acid buffer” was calculated by dividing the acid-stressed by the control enzyme phosphate concentrations for each enzyme.

Data set [2] is described as follows: ATPase activity at 0.05 ppm enzyme on 0.1 mM ATP (absorbance 620 nm). In kind it is biochemical. The settings on record: for Activity on ATP (absorbance at 620 nm, blank subtracted), pH 5.0: 50 mM IVIES buffer pH 5; for Activity on ATP (absorbance at 620 nm, blank subtracted), pH 6.0: 50 mM IVIES buffer pH 6. As for the experimental part: Enzyme activity towards ATP or ADP at pH 3 to 9: The ability of candidate enzymes to degrade ATP or ADP to AMP and free phosphate (Pi) was measured using a standard malachite green phosphate detection kit (Sigma Aldrich cat no. MAK307). The enzyme reactions were carried out in 96-well plates with a total volume of 150 μL and contained 250 μM of a substrate, 50 mM of a buffer, 5 mM CaCl2, and a variable concentration of enzyme. The substrate was ATP or ADP. The buffer was glycine (pH 3), acetate (pH 4, 4.5, 5), bis-Tris (pH 5.5, 6, 6.5), or Tris (pH 7, 8, 9). The concentration of enzyme varied from about 1 μg/mL to 1 ng/mL and was adjusted based on the activity of the enzyme so that the amount of phosphate released during the assay was with the dynamic range of the assay (5-100 μM phosphate). The enzyme concentration was determined by the absorbance at 280 nm and using the predicted molecular weight and molar extinction coefficient to calculate the concentration. The enzyme reaction was initiated by the addition of 15 μL enzyme with 135 μL of the other reaction components such that the final reaction composition was as previously described. The reaction was stopped after 5 min by mixing 80 μL of the reaction mixture with 20 μL of the malachite green working reagent. The malachite green working reagent was prepared according to the manufacturer's protocol by mixing 100 parts reagent A with 1 part reagent B. Phosphate standard solutions (0-80 μM) and a negative control reaction without enzyme were also mixed with the malachite green working reagent. All samples were tested in duplicate. The malachite green reaction mixture was allowed to rest at room temperature for 45-60 min and the absorbance at 620 nm was measured. Lastly, the absorbance of the phosphate standards were used to convert the absorbance readings of each sample into phosphate concentrations and the negative control was subtracted from each reaction.
Enzymes of interest were assayed against ATP substrate. The ATPase activity was measured at 0.05 ppm concentration in 50 mM IVIES buffer pH 6 and pH 5 with 0.1 mM ATP as substrate as described in Example 1. Commercial potato apyrase was used as reference. The absorbance at 620 nm was measured and the absorbance of a blank sample (water) was subtracted from each sample.

For data set [3], the system named is Acute DSS colitis in C57BL/6 mice. The experiment in a line: Chemically-induced DSS colitis mouse model, disease activity index (DAI). In kind it is in vivo. An excerpt: Acute DSS colitis was induced in C57BL/6 mice according to the previously published method with minor modification (Sann et al., 2013, Life Sci. April 9; 92(12):708-18). The mice were fed 3% (w/v) DSS dissolved in the drinking water on day one to day five. Fresh DSS solution was provided every other day. Control mice (Group 1) drank only distilled water. Groups 4 to 8 received candidate acid phosphatase enzymes by oral gavage and groups 9 to 12 received enzymes via catheter (Table 2). DAI was calculated as described earlier (Cooper et al., 1993, Laboratory investigation; a journal of technical methods and pathology. 69(2):238-49).

Data set [4] in a line: Enzyme substrate specificity on nucleotide substrates (malachite green assay). It is filed as biochemical. The settings on record: FIG. 3; bis-Tris pH 6.5 (CRC21323, CRC21322 acetate pH 4.5; CD39 pH 7). As for the experimental part:
Enzyme activity towards ATP or ADP at pH 3 to 9: The ability of candidate enzymes to degrade ATP or ADP to AMP and free phosphate (Pi) was measured using a standard malachite green phosphate detection kit (Sigma Aldrich cat no. MAK307). The enzyme reactions were carried out in 96-well plates with a total volume of 150 μL and contained 250 μM of a substrate, 50 mM of a buffer, 5 mM CaCl2, and a variable concentration of enzyme. The substrate was ATP or ADP. The buffer was glycine (pH 3), acetate (pH 4, 4.5, 5), bis-Tris (pH 5.5, 6, 6.5), or Tris (pH 7, 8, 9). […] The enzyme concentration was determined by the absorbance at 280 nm and using the predicted molecular weight and molar extinction coefficient to calculate the concentration. […] The malachite green reaction mixture was allowed to rest at room temperature for 45-60 min and the absorbance at 620 nm was measured. Lastly, the absorbance of the phosphate standards were used to convert the absorbance readings of each sample into phosphate concentrations and the negative control was subtracted from each reaction.
Enzyme substrate specificity: The activity of the enzymes on different nucleotide substrates was tested using the malachite green assay. […] After converting the absorbance to phosphate concentration, the activity of each enzyme was set relative to the activity on ATP.

B1: CRC21328: GDA1/CD39 family enzyme, accession CCD05982.1, SEQ ID NO:6 (protein, listed as Legionella pneumophila)
chain: DTNPCEKHSCIAVIDAGSTGSRLHIYSYDTDNTNTPIHIEEIWNKKIKPGFASIQPNSVTIDAYLTMLLADAPIHNIPVYFYATAGMRLLPQSQQKKYYDELEYWFRQQSQWQLVEAKTITGNDEALFDWLAVNYKLDTLKSVQNKSVGVMDMGGASVQIVFPMPKNAEISKHNQVELNIYGQNINLYVHSFLGLGQTEMSHQFLNSPSCFANDYPLPDGESGQGNAPSCKEEVTSLMNSVHKVNQQIQPLLALNPVNEWYSIGGISNLASSQLFHFENSELTNQSLLQQGDNQICHQQWDILNGQYPDDEYLYQYCLLSSYYYALMVDGYGINPNQTIHYIPPEQNLDWTIGVVLHRA
For B1, the “residual activity after incubation at pH 2” value in data set [1] (60 min in acid buffer, 50 mM glycine, 5 mM CaCl2) was “greatest resistance”. Also, in data set [2], the “Activity on ATP (absorbance at 620 nm, blank subtracted), pH 5.0” value (“Activity on ATP … pH 5.0” for short) was found to be 0.45 and the “Activity on ATP (absorbance at 620 nm, blank subtracted), pH 6.0” value (“Activity on ATP … pH 6.0” below) is given as 0.27.

B2: CRC21323: Acid phosphatase (Class A), accession WP_054306375.1, SEQ ID NO:18 (predicted mature), SEQ ID NO:2 (protein, listed as Serratia rubidaea)
chain: AQTPGFLTPETAPDSLQILPPPPAENTTAFLNDKAAYETGKTLKDAQRQALAASDADYKNISAAFSAAFGEEISPEKTPALYALLQGVLQDSHDYAMRAAKDHYMRVRPFVVYKDSTCTPEKDKSMAKTGSYPSGHASFGWATALVLTEINPARETEILKRGYDFGQSRVVCGAHWQSDVDNGRLMGAAVVAALHGNQGFNDALAKAKAEFAKR
On to B2, for which the “stability in acid resistance assay” value in data set [1] was “least stable”. For the same molecule, in data set [2], the “Activity on ATP … pH 5.0” value is 0.39 and the “Activity on ATP … pH 6.0” value came to 0.10. The “reduction in DAI score compared to control” value in data set [3] (catheterized mice, test items via cecum BID, FIG. 6A, 6B) is recorded as 40%. The “improvement in DAI score compared to control” value in data set [3] (non-catheterized mice, oral gavage BID, FIG. 5A, 5B) was 43%.

B3: CRC22105: GDA1/CD39 family enzyme, accession WP_045094910.1, SEQ ID NO:8 (protein, listed as Legionella fallonii)
chain: ENASCDKHQCITVIDAGSTGSRVHIYAYDLDETNTPTNINEIWTKKIKPGFATIDPNYNTIDAYLTILLSGAPTQQGPVYFYATAGMRLLPASKQKLYYQELQRWFTQQTQWHFVEAKTITGNEEALYDWLSVNYHLGTLKSVQNKAIGVMDMGGASVQIVFPIQKNENIHGRSQVELNIYGQRINLFVHSFLGLGQTEMSHQFLNSTSCFTNDYPLPDGEMGLGNALSCEQEVSSLMNAVHGVSKTIQPVLAANSVDSWYAIGGLTNLADNKLFNFVNGQLTNQSLIEQADSQICHQQWSKLDAQYPNDDYIYGYCLFSSYFYALMVDGYGISPEQTVNYISPSINLDWTKGVVLHHLS
In the case of B3, the “activity on different nucleotide substrate relative to ATP” value in data set [4] is “noticeably reduced activity on UTP/UDP and CTP/CDP”. Also, in data set [2], the “Activity on ATP … pH 5.0” value amounted to 0.26 and the “Activity on ATP … pH 6.0” value turned out to be 0.28.

B4: CRC21322: Acid phosphatase (Class A), accession AEG96708.1, SEQ ID NO:17 (protein)
chain: KENKGFLNADTSPDSLAILPPPPTENSVAFLQDKADYETGRVLKNKERTELAAKDANYKNFGQAFSEAFGMVISAERTPVLYLLLSEVLQDSHDYAMRSAKDHYMRVRPFVLYKNPTCTPEKDDKMAKTGSYPSGHASFGWAAALVLAEINPARETEILKRGMDFGESRVVCGAHWQSDVDSGRIMGAAVVAALHANPRFANTLSEAKKEFAALSAKSE
modifications: Klebsiella aerogenes
B4: the “stability in acid resistance assay” value in data set [1] was “least stable”. In addition, in data set [2], the “Activity on ATP … pH 5.0” value stood at 0.40 and the “Activity on ATP … pH 6.0” value turned out to be 0.07.

(Values after patent US20240124857A1, “COMPOSITION FOR GUT HEALTH” (DUPONT NUTRITION BIOSCIENCES APS, priority 2021, published 2024).)
